How the values were obtained:
Assay in all cases: western blot of E. coli lysate supernatant
[1] = molecular target: T1, His-S2p2-1(서열 686~1177 아미노산) (SARS-CoV-2, UniProt P0DTC2 686-1177)
T1 construct: range 686-1177

His-S2p2(서열 686~1207) = molecular target: T2, His-S2p2(서열 686~1207) (SARS-CoV-2, UniProt P0DTC2 686-1207)
T2 construct: range 686-1207

S2p2-2(서열 686~1144) = molecular target: T3, S2p2-2(서열 686~1144) (SARS-CoV-2, UniProt P0DTC2 686-1144)
T3 construct: range 686-1144

Measured: binding result

B1: 항-스파이크2(Spike2, S2) 단일클론 항체 4A5 (antibody, V domains shown)
VH: QVKLEQSGPGILQPSQTLSLTCSFSGFSLSTSGMGVSWIRQSSGKGLEWLTHIYWDDDKRYNPSLKSRLTISKDTSRNQVFLKITSVDTADTATYYCARRRMITGLYYAMDYWGQGTSVTVSS
VL: DIVMTQSTLSLPVSFGDQVSISCRSSQSLANSYGITYLSWYLHKPGQSPQLLIYGISNRFSGVPDRFSGSGSGTDFTLKISTIKPEDLGMYYCLQGTHQPWTFGGGTKLEIKR
notes: also called 4A5 항체; 항-S2 항체 4A5
binds: [1] | His-S2p2(서열 686~1207) | S2p2-2(서열 686~1144)

— patent publication KR20230038028A (dated 2023)
